# Assay results: patent publication EP2295560A1, “Directed evolution of arginine deiminase for increased activity at physiological pH” (priority 2009, dated 2011)
# Test system: N=C(N)NCCC[C@H](N)C(=O)O
# Assay: Determination of kcat and Km (citrulline colorimetric assay, purified enzyme)
# Type: biochemical, Pseudomonas plecoglossicida CGMCC2039
# Conditions: 0.5 M phosphate buffer, 0.2 mM to 10 mM of arginine
# Procedure: The kcat and Km values were determined from initial velocity data measured as a function of substrate concentration. Enzyme reaction was carried out at 37°C in a water bath. After 10 min preincubation at 37"C, the enzyme reaction was initiated by addition of purified enzyme (50 µl, 0.2-0.5 µM) to the substrate solution (200 µl, 0.2 mM to 10 mM of arginine, 0.5 M phosphate buffer, pH 7.4) in deep well plates. The reaction mixture was incubated (37°C) and every two minutes reaction mixture (30 µl) of each well was transferred to acid-ferric solution (30 µl) to stop the enzyme reaction. The color development was subsequently performed in 96-well PCR plate. Ferric-acid solution (90 µl) and DAM-TSC solution (15 µl) were added to each well. The 96-well PCR plate was then incubated (70°C, 30 min) in thermal cycler (Eppendorf Mastercyler gradient) for color development, followed by incubation in ice water to stop color development. Absorbance was measured at 530 nm using a microtiter plate reader (SPECTROstar Omega, BMG LABTECH, Offenburg, Germany). The initial velocity data obtained were fitted to the equation v = Vmax[S]/([S] + Km) (where v is the initial velocity, Vmax the maximum velocity, [S] the substrate concentration, and Km the Michaelis constant) using GraphPad Prism software (GraphPad software, San Diego, CA, USA). The kcat was calculated from the ratio of Vmax, and enzyme concentration.
# For kinetic characterization of ADI variants the citrulline production was maintained between 0.2-0.8 mM. […] Figure 4 summarizes the kcat and Km values of wild type PpADI, identified variants M1 […] and M2 (K5T D44E H404R) which were expressed in shaking flasks cultures and purified using a two step procedure (anion exchange follows by gel filtration). Both variants M1 and M2 show an increase in kcat and Km for citrulline production at pH 7.4.
substance,measurement,setting,value
Pseudomonas plecoglossicida arginine deiminase (PpADI) variant M1 (H404R) (Pseudomonas plecoglossicida; H404R),Km,"other: M1, pH 7.4, 37°C",1200 µM
Pseudomonas plecoglossicida arginine deiminase (PpADI) variant M2 (K5T D44E H404R) (Pseudomonas plecoglossicida; D44E/H404R/K5T),Km,"other: M2, pH 7.4, 37°C",2500 µM
"Pseudomonas plecoglossicida arginine deiminase (PpADI), wild type, SEQ ID No. 1 (Pseudomonas plecoglossicida)",Km,"other: wild type PpADI, pH 7.4, 37°C",700 µM
